From IntAct's records for PubMed 19513235

B1: Mitogen-activated protein kinase kinase 9 (Arabidopsis thaliana (Mouse-ear cress)), Q9FX43 (parent)
chain: MALVRERRQLNLRLPLPPISDRRFSTSSSSATTTTVAGCNGISACDLEKLNVLGCGNGGIVYKVRHKTTSEIYALKTVNGDMDPIFTRQLMREMEILRRTDSPYVVKCHGIFEKPVVGEVSILMEYMDGGTLESLRGGVTEQKLAGFAKQILKGLSYLHALKIVHRDIKPANLLLNSKNEVKIADFGVSKILVRSLDSCNSYVGTCAYMSPERFDSESSGGSSDIYAGDIWSFGLMMLELLVGHFPLLPPGQRPDWATLMCAVCFGEPPRAPEGCSEEFRSFVECCLRKDSSKRWTAPQLLAHPFLREDL
partner: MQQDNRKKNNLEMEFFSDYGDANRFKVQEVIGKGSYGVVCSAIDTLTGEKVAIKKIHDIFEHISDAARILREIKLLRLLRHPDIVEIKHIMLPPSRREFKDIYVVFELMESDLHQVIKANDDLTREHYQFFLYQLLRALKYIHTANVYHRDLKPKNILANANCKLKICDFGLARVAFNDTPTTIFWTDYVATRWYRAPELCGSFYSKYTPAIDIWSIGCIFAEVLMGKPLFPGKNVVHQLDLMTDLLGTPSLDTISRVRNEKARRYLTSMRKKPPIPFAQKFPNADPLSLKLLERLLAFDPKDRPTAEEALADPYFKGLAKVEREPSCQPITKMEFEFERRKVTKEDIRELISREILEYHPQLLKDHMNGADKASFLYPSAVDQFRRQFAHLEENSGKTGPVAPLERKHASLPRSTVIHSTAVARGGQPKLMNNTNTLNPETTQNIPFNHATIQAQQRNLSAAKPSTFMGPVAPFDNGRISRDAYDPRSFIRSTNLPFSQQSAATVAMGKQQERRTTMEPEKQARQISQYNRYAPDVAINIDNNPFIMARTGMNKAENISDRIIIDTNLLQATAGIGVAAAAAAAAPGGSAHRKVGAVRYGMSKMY
B2: Mitogen-activated protein kinase kinase 9 (Arabidopsis thaliana (Mouse-ear cress)), Q9FX43 (parent)
chain: B1 chain

Variants of: B1
Conditions: with mpk20_arath MPK20, Q9SJG9

effect of a mutation on the interaction | Variant
increasing interaction | MALVRERRQLNLRLPLPPISDRRFSTSSSSATTTTVAGCNGISACDLEKLNVLGCGNGGIVYKVRHKTTSEIYALKTVNGDMDPIFTRQLMREMEILRRTDSPYVVKCHGIFEKPVVGEVSILMEYMDGGTLESLRGGVTEQKLAGFAKQILKGLSYLHALKIVHRDIKPANLLLNSKNEVKIADFGVSKILVRSLDSCNEYVGTCAYMSPERFDSESSGGSSDIYAGDIWSFGLMMLELLVGHFPLLPPGQRPDWATLMCAVCFGEPPRAPEGCSEEFRSFVECCLRKDSSKRWTAPQLLAHPFLREDL [S201E]
increasing interaction | MALVRERRQLNLRLPLPPISDRRFSTSSSSATTTTVAGCNGISACDLEKLNVLGCGNGGIVYKVRHKTTSEIYALKTVNGDMDPIFTRQLMREMEILRRTDSPYVVKCHGIFEKPVVGEVSILMEYMDGGTLESLRGGVTEQKLAGFAKQILKGLSYLHALKIVHRDIKPANLLLNSKNEVKIADFGVSKILVRELDSCNSYVGTCAYMSPERFDSESSGGSSDIYAGDIWSFGLMMLELLVGHFPLLPPGQRPDWATLMCAVCFGEPPRAPEGCSEEFRSFVECCLRKDSSKRWTAPQLLAHPFLREDL [S195E]

Variants of: B2
Conditions: with mpk6_arath MPK6, Q39026
mpk6_arath MPK6, Q39026, sequence (Q39026 whole entry): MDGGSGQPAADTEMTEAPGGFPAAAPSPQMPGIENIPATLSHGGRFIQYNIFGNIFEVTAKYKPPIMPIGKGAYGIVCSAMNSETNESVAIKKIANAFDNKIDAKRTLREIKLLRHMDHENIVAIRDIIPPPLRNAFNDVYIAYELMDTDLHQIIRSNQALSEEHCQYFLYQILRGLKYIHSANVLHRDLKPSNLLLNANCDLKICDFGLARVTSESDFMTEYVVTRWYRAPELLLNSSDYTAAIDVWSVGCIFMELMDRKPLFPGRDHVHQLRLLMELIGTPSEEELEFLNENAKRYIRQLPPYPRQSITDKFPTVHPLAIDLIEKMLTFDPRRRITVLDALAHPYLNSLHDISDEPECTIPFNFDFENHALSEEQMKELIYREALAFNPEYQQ

effect of a mutation on the interaction | Variant
increasing interaction | MALVRERRQLNLRLPLPPISDRRFSTSSSSATTTTVAGCNGISACDLEKLNVLGCGNGGIVYKVRHKTTSEIYALKTVNGDMDPIFTRQLMREMEILRRTDSPYVVKCHGIFEKPVVGEVSILMEYMDGGTLESLRGGVTEQKLAGFAKQILKGLSYLHALKIVHRDIKPANLLLNSKNEVKIADFGVSKILVRSLDSCNEYVGTCAYMSPERFDSESSGGSSDIYAGDIWSFGLMMLELLVGHFPLLPPGQRPDWATLMCAVCFGEPPRAPEGCSEEFRSFVECCLRKDSSKRWTAPQLLAHPFLREDL [S201E]

Variants of: B2
Conditions: with mpk10_arath MPK10, Q9M1Z5
mpk10_arath MPK10, Q9M1Z5, sequence (Q9M1Z5 whole entry): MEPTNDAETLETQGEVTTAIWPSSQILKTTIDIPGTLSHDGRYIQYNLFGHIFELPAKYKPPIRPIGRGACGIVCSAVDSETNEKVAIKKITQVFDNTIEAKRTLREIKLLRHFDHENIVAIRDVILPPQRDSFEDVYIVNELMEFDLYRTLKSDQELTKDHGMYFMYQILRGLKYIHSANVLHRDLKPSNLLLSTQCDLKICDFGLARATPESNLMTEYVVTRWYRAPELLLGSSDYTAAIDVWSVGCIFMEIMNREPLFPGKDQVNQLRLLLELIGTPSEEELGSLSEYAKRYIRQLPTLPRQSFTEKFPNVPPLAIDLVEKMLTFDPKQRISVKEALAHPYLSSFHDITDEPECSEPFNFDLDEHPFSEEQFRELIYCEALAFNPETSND

effect of a mutation on the interaction | Variant
increasing interaction | MALVRERRQLNLRLPLPPISDRRFSTSSSSATTTTVAGCNGISACDLEKLNVLGCGNGGIVYKVRHKTTSEIYALKTVNGDMDPIFTRQLMREMEILRRTDSPYVVKCHGIFEKPVVGEVSILMEYMDGGTLESLRGGVTEQKLAGFAKQILKGLSYLHALKIVHRDIKPANLLLNSKNEVKIADFGVSKILVRSLDSCNEYVGTCAYMSPERFDSESSGGSSDIYAGDIWSFGLMMLELLVGHFPLLPPGQRPDWATLMCAVCFGEPPRAPEGCSEEFRSFVECCLRKDSSKRWTAPQLLAHPFLREDL [S201E]
